Reference: patent publication US20230176070A1

T1: PDZ domain of mitochondrial outer membrane protein 25 (mammalian (so in the source)) (UniProt P57105)
T1 sequence (looked up): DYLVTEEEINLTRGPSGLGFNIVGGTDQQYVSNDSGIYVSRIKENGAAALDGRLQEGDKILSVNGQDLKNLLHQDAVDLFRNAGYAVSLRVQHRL


Legend:
[1] = target: GST fusion PDZ mutant protein (R46E:K48D) (mammalian (so in the source)) (UniProt P57105); assay: indirect ELISA, PDZ R46E:K48D coated
[2] = target: T1, PDZ domain of mitochondrial outer membrane protein 25 (mammalian (so in the source)); assay: indirect ELISA, wild type PDZ coated
[3] = target: GST fusion PDZ mutant protein (R46E:K48D) (mammalian (so in the source)) (UniProt P57105); assay: ELISA, wild type PDZ against PDZ R46E:K48D

| Mutant ELISA affinity (LogIC50 (oD450nm)) [1] | WT ELISA affinity (LogIC50 (oD450nm)) [2] | Affinity fold change [3] | Binder |
| --- | --- | --- | --- |
| 4.73 | 5.25 | 3.32 fold | P6 (VHH) VHH: HVQLVESGGGLVQAGGSLRLSCAASGRTFSRYTMGWFHQAPGKEREFVAEISGTGGNTGYADSVKGRFTMSRDNAKNTVYLQMNSLKPEDTGVYYCAAVIGSPTDSSDYRSSLDYDYWGQGTQVTVSE |
| 3.74 | 5.15 | 25.7 fold | P14 (VHH) VHH: QVQLVESGGGLVQAGDSLRLSCTASGRTFSTYTMAWFRQAPGKEREFVAAISWSGTYYADSVKGRFTISRDNAKNTVYLQMNSLKPEDTAVYYCAAVIGSTVDTYSPSDPLEYDYWGQGTQVTVSS |
| 2.61 | 4.88 | 185 fold | P9 (VHH) VHH: DVQLVESGGGLVQAGGSLRLSCVASVASGRTFGWYDMGWFRQAPGKEREFVAAISWSGGSTYYADSVKGRSTISRDNAKNTVYLQMNSLKPEDTAVYYCAARGGGTSVDSDYDVGEFEYDYWGQGTQVTVSE |
| 1.66 | 4.97 | 2060 fold | P15 (VHH) VHH: QVQLVESGGGLVQAGGSLRLSCVASGRPFSSLDMGWFRQRPGKERDVVATINWTGDSTYYLDSVKGRFTISRDNAKNTVFLQMNSLKPEDTAVYYCAARGGGSSVDSEYDVGEFEYDYWGQGTQVTVSS |
| 0 | 4.07 | 11700 fold | P11 (VHH) VHH: DVQLVESGGGLVQAGGSLRLSCVASGRTFSTYTMGWFRQAPGKEREFVAHIGWSGSSTYYADSVKGRFTISRDNAKNTMYLQMNSLKPEDTAVYYCAVAIGSPVDSYRHSDPLEYDYWGQGTQVTVSE |
| 0.0071 | 4.45 | 28000 fold | P13 (VHH) VHH: QVQLVESGGGLVQAGGSLRLSCAASGRTFSTYTMGWFRQAPGKEREFVAAVTWSETLYSDSVKGRFTISRDNAKNTVYLQMNSLKPEDTAVYYCAAVQGSPVDTIVVLTTSEEYDYWGQGTQVTVSS |
